# Results reported in paper PMC4613710, “A biophysical study on molecular physiology of the uncoupling proteins of the central nervous system” (Bioscience Reports, 2015).
# Experiments:
# [1] = molecular target: the molecule itself; test: native gel or EMSA; semi-native PAGE (12% gel, 2 mM SDS in running buffer only), UCP reconstituted in POPC liposomes, loading buffer lacking SDS, Coomassie stain; bands identified by LC-MS/MS
# [2] = molecular target: the molecule itself; test: native gel or EMSA; semi-native PAGE (12% gel), UCP reconstituted in POPC liposomes titrated with SDS to 83 mM (about 40x CMC), Coomassie stain; bands identified by LC-MS/MS
# [3] = molecular target: the molecule itself; test: far-UV CD spectroscopy, SDS titration; UCP reconstituted in POPC liposomes titrated with SDS (0-83 mM); normalised theta208/theta222 against [SDS], Hill fit; K1/2 = [SDS] at 50% protein dissociation; tetramer to dimers
# [4] = molecular target: the molecule itself; test: other fluorescence titration; Trp fluorescence (excitation 295 nm, 25 C) of UCP in POPC liposomes titrated with SDS (0-83.9 mM); maximum intensity against [SDS], Hill fit; Ka1/2 low SDS range (0-10 mM): tetramer to tight dimers; Kb1/2 high SDS range (10-100 mM): tight dimers to loose dimers and monomers
Protein,stoichiometry N [1],stoichiometry N [2],CD K1/2 ([SDS] at 50% protein dissociation) [3] [mM SDS],"Fl Ka1/2 (first transition, tetramer to dimers, [SDS]) [4] [mM SDS]","Fl Kb1/2 (second transition, dimers to loose dimers and monomers, [SDS]) [4] [mM SDS]"
"human uncoupling protein 2 (His6-ENLYFQG-hUCP2) (natural protein, UniProt P55851 1-309, looked up, uncoupling protein 2 (UCP2), human; cDNA clone pET21a-UCP2 sub-cloned into pET26b(+); Tetramer is the predominant form in POPC liposomes without SDS; dimers and a few monomers at 83 mM SDS; PDB 2LCK is only viewed as a model of UCP2; also called neuronal UCP) MVGFKATDVPPTATVKFLGAGTAACIADLITFPLDTAKVRLQIQGESQGPVRATASAQYRGVMGTILTMVRTEGPRSLYNGLVAGLQRQMSFASVRIGLYDSVKQFYTKGSEHASIGSRLLAGSTTGALAVAVAQPTDVVKVRFQAQARAGGGRRYQSTVNAYKTIAREEGFRGLWKGTSPNVARNAIVNCAELVTYDLIKDALLKANLMTDDLPCHFTSAFGAGFCTTVIASPVDVVKTRYMNSALGQYSSAGHCALTMLQKEGPRAFYKGFMPSFLRLGSWNVVMFVTYEQLKRALMAACTSREAPF",4,2,1.1 ± 0.1,0.61 ± 0.1,7.1 ± 0.3
"human uncoupling protein 4 (His6-ENLYFQG-hUCP4) (natural protein, UniProt O95847 1-323, looked up, uncoupling protein 4 (UCP4), human; cDNA synthesized by GenScript, sub-cloned into pET26b(+); Tetramer is the predominant form in POPC liposomes without SDS; dimers and a few monomers at 83 mM SDS; also called neuronal UCP) MSVPEEEERLLPLTQRWPRASKFLLSGCAATVAELATFPLDLTKTRLQMQGEAALARLGDGARESAPYRGMVRTALGIIEEEGFLKLWQGVTPAIYRHVVYSGGRMVTYEHLREVVFGKSEDEHYPLWKSVIGGMMAGVIGQFLANPTDLVKVQMQMEGKRKLEGKPLRFRGVHHAFAKILAEGGIRGLWAGWVPNIQRAALVNMGDLTTYDTVKHYLVLNTPLEDNIMTHGLSSLCSGLVASILGTPADVIKSRIMNQPRDKQGRGLLYKSSTDCLIQAVQGEGFMSLYKGFLPSWLRMTPWSMVFWLTYEKIREMSGVSPF",4,2,1 ± 0.1,0.6 ± 0.1,9.8 ± 0.3
"human uncoupling protein 5 (His6-ENLYFQG-hUCP5) (natural protein, UniProt O95258 1-325, looked up, uncoupling protein 5 (UCP5), human; cDNA bought from A.T.C.C., sub-cloned into pET26b(+); Tetramer is the predominant form in POPC liposomes without SDS; dimers and a few monomers at 83 mM SDS; also called neuronal UCP) MGIFPGIILIFLRVKFATAAVIVSGHQKSTTVSHEMSGLNWKPFVYGGLASIVAEFGTFPVDLTKTRLQVQGQSIDARFKEIKYRGMFHALFRICKEEGVLALYSGIAPALLRQASYGTIKIGIYQSLKRLFVERLEDETLLINMICGVVSGVISSTIANPTDVLKIRMQAQGSLFQGSMIGSFIDIYQQEGTRGLWRGVVPTAQRAAIVVGVELPVYDITKKHLILSGMMGDTILTHFVSSFTCGLAGALASNPVDVVRTRMMNQRAIVGHVDLYKGTVDGILKMWKHEGFFALYKGFWPNWLRLGPWNIIFFITYEQLKRLQI",4,2,1 ± 0.1,0.6 ± 0.1,8.9 ± 0.2
